In paper PMC7105311, “Structure and function of Bs164 β-mannosidase from Bacteroides salyersiae the founding member of glycoside hydrolase family GH164” (The Journal of Biological Chemistry, 2019) one finds Km, kcat and kcat/Km data, which are given here for 1 protein.

Substrate in data set [1]: O=[N+]([O-])c1ccc(O[C@@H]2O[C@H](CO)[C@@H](O)[C@H](O)[C@@H]2O)cc1
The experiment in a line: stopped assay, p-nitrophenol absorbance. Type of data set: biochemical, Bacteroides salyersiae. As to conditions: 80 mM MES pH 5.5, 160 mM NaCl, 25 °C. From the text: stopped assay, p-nitrophenol absorbance on Bs164

Substrate in the data set “purified protein”: Cc1cc(=O)oc2cc(O[C@@H]3O[C@H](CO)[C@@H](O)[C@H](O)[C@@H]3O)ccc12
Nature of the data set: purified protein. Format: biochemical, Bacteroides salyersiae. The conditions noted are these: 80 mM MES pH 5.5, 160 mM NaCl, 25 °C.

B1: Bs164 (Bacteroides salyersiae CL02T12C01) (protein)
chain: ERISKQSTPFVGAQIFIEPGQTQEQIEQWFKLLAESNMTTCRIRMFGKYMKTPSGTYDFTLFDRAFKLADKYHIKVYATLFPDTEFTDVGGFKFPHSREHQKEVEDYIKNVVSHFSQYKNLAAWVLINEPGTPNLPFNEPFTKERFSDWKKEHNFSEYNEKGYPVLNFEKENFIIDYHNWYLNWLANQVRLYDKQHDLHVNPHNVFKLSGLYDFPTWRTFLNSLGGSAHASWHFGYFPRKAYTVAMSANAELIRSGAGELPWLMTELQGGNNLYSGANPLCPTAEEIIQWLWINFATEAKGGIFWSFNARSTAAEAGEWAMINFKNKSSDRLIAAATIGKFITENVKMMSNIKTLNSGISILYNHESMWVEAAQTRGKLNGNGRSIGAVMCSPLSYFEALSETGLQANFKEIKEFDFSLNDYTDQVIILSHQIALDNKVIKQLESFVEKGGTLIADGLTGYYDYQAHSTVVSGFALENLFGSYPIEYKIKENLFSLDFEKDNYKLPAHLWKGTIETSKATPIMDKEGECIACINQYGKGKVFWIPSPIALGARESKDFSELSKLTVSLLPNKILNDNPHFDKHYKDVMMKSFKSNGTMYSLIINKSASVQTVDIVGGKGKAFILFANKNAHSTANKLTISPEETVIIKWKNN
notes: tag cut by 3C protease for kinetics, His6-tagged for crystals
Broadly, the Km is the substrate concentration at which the rate is half of its maximum. By kcat is commonly meant the number of substrate molecules converted per active site and unit of time at saturation. As a reminder, the kcat/Km is the turnover number divided by the Michaelis constant. For B1, in data set [1], the Km is 3600 ± 800 µM, the kcat is 40 ± 3 s⁻¹ and the kcat/Km turned out to be 11000 ± 3000 M⁻¹ s⁻¹. For the same protein, in “purified protein”, the Michaelis-Menten constant (Km) amounted to 1050 ± 80 µM, the kcat was found to be 1.8 ± 0.05 s⁻¹ and the kcat/Km came to 1700 ± 100 M⁻¹ s⁻¹.
